Measured values from patent US20200376034A1 (DRAGONFLY THERAPEUTICS, published 2020).
Blank lines part the entries; values can stand above or below the binder they belong to.

Assays:
[1] = target: T1, deglycosylated V domain of human CD33 (human, UniProt P20138 18-139, limits assumed, deglycosylated by PNGase); assay: SPR, Fab captured, 37 C
T1 construct: whole entry named; also called deglycosylated V CD33
Protocol: (§1) Kinetics and affinity of a series of Fab fragments of anti-CD33 antibodies with different CD33 variants (human CD33 ECD, cyno CD33 ECD, V-domain of human CD33, C-domain or human CD33 and selected CD33 SNPs) were assessed by surface plasmon resonance using Biacore 8K instrument (GE Healthcare). Anti-Fab antibody was immobilized on a CMS chip using standard amine coupling chemistry. CD33 FABs were captured on the anti-Fab chip at a density of ˜100 RU. Solutions containing different concentrations of soluble monomeric CD33 or its domains were injected over the captured FABs and control surfaces at 30 μl/min at 37° C. Surfaces were regenerated between cycles by quick injection of 10 mM glycine, pH 1.8. To obtain kinetic rate constants double-referenced data were fit to a 1:1 interaction model using Biacore 8K Evaluation software (GE Healthcare). The equilibrium binding constant KD was determined by the ratio of binding rate constants kd/kₐ.
The ability of anti-CD33 antibodies to recognize glycosylated CD33 was assayed. […] De-glycosylation status was confirmed by a shift on SDS-PAGE and MS.

[2] = target: T2, human CD33 extracellular domain (human, UniProt P20138 18-259); assay: SPR, Fab captured, 37 C
T2 construct: also called human CD33 ECD; hCD33
Protocol: as §1
(§2) Affinity of 29 Fab fragments binding to human and cyno CD33 ECD were assayed by Biacore analysis.

[3] = target: T2, human CD33 extracellular domain; assay: SPR, Fab captured, 37 C; remark: listed apart in the source
Protocol: as §1, §2

[4] = target: T2, human CD33 extracellular domain; assay: SPR, Fab captured, 37 C; remark: listed apart in the source
Protocol: as §1

[5] = target: T2, human CD33 extracellular domain; assay: SPR, Fab captured, 37 C; remark: listed apart in the source
Protocol: as §1, §2

[6] = target: T2, human CD33 extracellular domain; assay: BLI, IgG on sensor
Protocol: Briefly, ForteBio affinity measurements were performed by loading IgGs on-line onto AHC sensors. Sensors were equilibrated off-line in assay buffer for 30 min and then monitored on-line for 60 seconds for baseline establishment. Sensors with loaded IgGs were exposed to 100 nM antigen for 3 minutes, and afterwards were transferred to assay buffer for 3 min for off-rate measurement. All kinetics were analyzed using the 1:1 binding model.

- koff [1]: 0.131 s⁻¹
- kon [1]: 674000 M⁻¹ s⁻¹
- koff [2]: 0.0125 s⁻¹
- kon [2]: 212000 M⁻¹ s⁻¹
- koff [3]: 0.0125 s⁻¹
- kon [3]: 212000 M⁻¹ s⁻¹
- koff [4]: 0.0125 s⁻¹
- kon [4]: 212000 M⁻¹ s⁻¹
- koff [5]: 0.0125 s⁻¹
- kon [5]: 212000 M⁻¹ s⁻¹
B1: ADI-10173 Fab (Fab, V domains shown)
VH: QVQLVQSGAEVKKPGASVKVSCKASGYTFTSYYMHWVRQAPGQGLEWMGIINPSGGSTTYAQKFQGRVTMTRDTSTSTVYMELSSLRSEDTAVYYCAREAADGFVGERYFDLWGRGTLVTVSS
VL: not shown
notes: Fab fragment; also called Ab22

- koff [6]: 0.00314 s⁻¹
- kon [6]: 324000 M⁻¹ s⁻¹
B2: ADI-10173 IgG (antibody, V domains shown)
VH: B1 VH
VL: not shown
notes: IgG; also called Ab22

- koff [1]: 0.256 s⁻¹
- kon [1]: 1.68e+06 M⁻¹ s⁻¹
- koff [2]: 0.0275 s⁻¹
- kon [2]: 515000 M⁻¹ s⁻¹
- koff [3]: 0.0275 s⁻¹
- kon [3]: 515000 M⁻¹ s⁻¹
- koff [4]: 0.0275 s⁻¹
- kon [4]: 515000 M⁻¹ s⁻¹
- koff [5]: 0.0275 s⁻¹
- kon [5]: 515000 M⁻¹ s⁻¹
B3: ADI-10163 Fab (Fab, V domains shown)
VH: QVQLQESGPGLVKPSQTLSLTCTVSGGSISSGGYYWSWIRQHPGKGLEWIGSIYYSGSTYYNPSLKSRVTISVDTSKNQFSLKLSSVTAADTAVYYCARDRLDYSYNYGMDVWGQGTTVTVSS
VL: DIQMTQSPSSLSASVGDRVTITCRASQSISSYLNWYQQKPGKAPKLLIYGASSLQSGVPSRFSGSGSGTDFTLTISSLQPEDFATYYCQQVYSAPFTFGGGTKVEIK
notes: Fab fragment; also called Ab17

- koff [6]: 0.00453 s⁻¹
- kon [6]: 665000 M⁻¹ s⁻¹
B4: ADI-10163 IgG (antibody, V domains shown)
VH: B3 VH
VL: B3 VL
notes: IgG; also called Ab17
